Experiments:
human CACNG1 nanodisc = biological target: T1, human CACNG1 nanodisc (Homo sapiens, UniProt Q06432); test: Biacore binding kinetics of anti-CACNG1 monoclonal antibodies to human CACNG1 nanodisc, antigen capture format; conditions: 25° C., 1:1 binding model
T1 construct: made in house
Description: Equilibrium dissociation constants (KD values) for nanodisc embedded human CACNG1 expressed with a C-terminal PADRE-Flag-His tag (human CACNG1 nanodisc) binding to purified anti-hCACNG1 antibodies were determined using a real-time surface plasmon resonance biosensor technology with a Biacore T200 instrument. The CM5 Biacore sensor surface was derivatized by amine coupling with a monoclonal mouse anti-His antibody (Cytiva; Marlborough, MA). All Biacore binding studies were performed in a buffer composed of 0.01M HEPES, 0.15M NaCl, 1 mM CaCl2), 0.5 mM MgCl2, pH 7.4 (HBS-N++ running buffer). Different concentrations of anti-hCACNG1 antibodies (ranging from 300 nM to 12 nM in 5-fold serial dilutions) prepared in HBS-N++ running buffer were injected over the captured human CACNG1 nanodisc at a flow rate of 30 μL/minute. Antibody association was monitored for 2 minutes while dissociation was monitored in HBS-N++ running buffer for 5 minutes. At the end of each cycle, the human CACNG1 nanodisc capture surface was regenerated using three 10 second injections of 10 mM Gly pH1.5. All binding kinetics experiments were performed at 25° C.
The specific SPR-Biacore sensorgrams were obtained by a double referencing procedure. The double referencing was performed by first subtracting the signal of each injection over a reference surface (anti-His) from the signal over the experimental surface (anti-His captured human CACNG1 nanodisc) thereby removing contributions from refractive index changes. In addition, running buffer injections were performed to allow subtraction of the signal changes resulting from the dissociation of captured antibodies from the coupled anti-His surface. Kinetic association (ka) and dissociation (kd) rate constants were determined by fitting the real-time sensorgrams to a 1:1 binding model using Scrubber v2.0c curve fitting software. Binding dissociation equilibrium constants (KD) and dissociative half-lives (t1/2) were calculated from the kinetic rate constants as: […]

CACNG1^Hu/Hu myofibers = test: Antibody binding to single myofibers ex vivo; format: cell-based, mouse; conditions: 100 nM antibody, 30 minutes
Description: (§1) Following confirmation of CACNG1 antibody binding to human myotubes, a subset of antibodies was tested for binding to fully mature myofibers ex vivo. Single myofibers were isolated from either wildtype mice, mice that were homozygous for the deletion of CACNG1 (referred to as CACNG1 knockout mice), or mice that were homozygous for the expression of human CACNG1 in place of mouse CACNG1 (referred to as CACNG1^Hu/Hu). The gastrocnemius muscle was removed, collagenase digested, and single myofibers were isolated, washed, and incubated overnight at 37° C. at 5% C02, in DMEM+10% horse serum. Following overnight incubation, single myofibers were incubated with 100 nM of each CACNG1 antibody or an isotype control antibody for 30 minutes. Myofibers were then washed twice in DMEM+10% horse serum, and subsequently incubated with 10 ug/mL of fluorescent-conjugated secondary antibodies for 30 minutes, washed twice in DMEM+10% horse serum, and then fixed with 4% paraformaldehyde (PFA) for 15 minutes at room temperature. Single fibers were then washed twice with PBS, stained with Hoechst for 5 minutes, washed once more with PBS, then transferred to microscope slides, coverslipped, and imaged using a Zeiss LSM 710 confocal microscope.

[1] = tested on: wildtype or CACNG1 knockout myofibers; test: Antibody binding to single myofibers ex vivo; format: cell-based, mouse; conditions: 100 nM antibody, 30 minutes
Description: as §1

human myotubes = test: Acetylcholine-induced calcium flux assay in human myotubes (FLIPR); format: cell-based; conditions: antibody 0.01 μM to 1 μM, 1 hour incubation, 20 uM acetylcholine
Description: CACNG1 is the γ1 subunit of the skeletal muscle specific L-type calcium channel, (dihydropyridine receptor), though genetic deletion of CACNG1 appears to have no major impact on skeletal muscle function. To determine whether antibodies that bind CACNG1 impact muscle function, a calcium flux assay was performed on human myotubes that were incubated with CACNG1 antibodies to determine whether these antibodies affect acetylcholine-induced calcium release.
Human skeletal myoblasts (Cook Myosite, Inc.) were plated at 10,000 cells/well of a 96-well plate and were differentiated for 7 days into myotubes. On the final day of differentiation, media was replaced with 50 μL of FLIPR calcium 5 dye with probenecid (Invitrogen) and 50 uL of assay buffer (0.1% BSA-DMEM) per well. CACNG1 and isotype control antibodies were serial diluted in assay buffer and added to the cells and incubated at 37° C. in a 5% CO2 incubator for 1 hour prior to the calcium flux assay. Nicardipine hydrochloride (Sigma) was added to untreated wells to serve as a control for calcium channel blockade. After 1 hour, acetylcholine (Sigma) was added at a 20 uM final concentration to induce myotube calcium release, and plates were assayed on a FLIPR Tetra (Molecular Devices, LLC).

T1 sequence (Q06432 whole entry): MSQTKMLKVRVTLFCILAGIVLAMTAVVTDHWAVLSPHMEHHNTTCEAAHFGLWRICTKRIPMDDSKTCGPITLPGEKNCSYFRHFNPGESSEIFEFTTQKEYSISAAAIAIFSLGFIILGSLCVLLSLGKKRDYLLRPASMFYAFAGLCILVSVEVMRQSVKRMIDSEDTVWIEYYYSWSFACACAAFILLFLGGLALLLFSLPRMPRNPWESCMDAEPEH

| Molecule | ka (human CACNG1 nanodisc) [M⁻¹ s⁻¹] | kd (human CACNG1 nanodisc) [s⁻¹] | binding to CACNG1^Hu/Hu myofibers ex vivo (CACNG1^Hu/Hu myofibers) | binding to wildtype or CACNG1 knockout myofibers [1] | effect on acetylcholine-induced calcium flux (human myotubes) |
| --- | --- | --- | --- | --- | --- |
| REGN9909: anti-hCACNG1 antibody, HCVR/LCVR SEQ ID NOs: 146/154 (antibody, V domains shown) VH: EVQLLESGGGLVQPGGSLRLSCAASGFTFNNYGMSWVRQGPGKGLEWVSSISGSGGTTFYADSVKGRFTISRDNSKNTLYLQMNSLRAEDTAVYYCGKGGYCSSSGCRHYGMDVWGQGTTVTVSS VL: QSVLTQPPSASGTPGQRVTISCSGSSSNIGNNYIYWYQRLPGTTPKLLIYRNNQRPSGVPDRFSGSKSGTSASLAISGLRSEDEADYYCAAWDDTLSGYVFGTGTKVTVL | 331000 | 0.00137 | – | – | – |
| REGN10717: anti-hCACNG1 antibody, HCVR/LCVR SEQ ID NOs: 34/42, wildtype hIgG1 (antibody, V domains shown, hIgG1) VH: QVQLVESGGGVVQPGRSLRLSCAASGFTFSTYGMHWVRQAPGKGLEWVAVIWHDGSDKYYVDSVKGRFSIARDNSKNTLYLQMNSLRVEDTGIYYCARRGIRGTVFDHWGLGTLVTVSS VL: DIQMTQSPSTLSASVGDRVTLTCRASQSISNKLAWYQQKPGKAPNLLIYKASNLESGVPSRFSGSGSGTEFTLTISSLQPDDFATYYCQQYNSYSWTFGQGTKVEIK | 294000 | 0.0304 | – | – | – |
| H2aM31941N: anti-hCACNG1 antibody, HCVR/LCVR SEQ ID NOs: 114/122 (antibody, V domains shown) VH: QVQLVQSGAEVKKPGASVKVSCKASGYAFTTYGITWVRQAPGQGLEWMGWISAYNGNTNYAEKVQGRFTMTTDTSTNTAYMELRSLRSDDTAVYFCARKGHYGSGTYYNPFGFDFWGQGTMVTVSS VL: EIMLMQSPGTLSLSPGERATLSCRASQSVSSSYLAWYQQKPGQAPRLLIYGASSRATDIPDRFSGSGSGTDFTLTISRLEPEDFAVYFCQQYYGSPWTFGQGTKVEIK | 342000 | 0.000406 | demonstrated binding to CACNG1^Hu/Hu myofibers ex vivo | did not bind to wildtype or CACNG1 knockout myofibers | – |
| H2aM31944N: anti-hCACNG1 antibody, HCVR/LCVR SEQ ID NOs: 82/90 (antibody, V domains shown) VH: QVQLVESGGGVVQPGRSLRLSCEASGITFRNYGMHWVRQAPGKGLEWVAVMWYDGSNKYYADSVKGRFTISRDNSKNTVYLQMNSLRAEDTAVYYCARRGHIATAAPFDYWGQGTLVTVSS VL: DIQMTQSPSSLSASVGDRVTISCRASQSISSYLNWYQQKPGKAPKVLMYAASSLQSGVPSRFSGSGSGTDFTLTISSLQPEDFATYYCQQSYSTPPITFGQGTRLEIK | 231000 | 0.00395 | – | – | do not inhibit acetylcholine-induced calcium flux |
| REGN10715: anti-hCACNG1 antibody, HCVR/LCVR SEQ ID NOs: 18/26, wildtype hIgG1 (antibody, V domains shown, hIgG1) VH: QVQLQQWGAGLLKPSATLSRTCAVYGGSFSGYYWNWIRQSPGKGLEWIGEILHSGRTNYNPSLKSRVTISVDTSKNQFSLKLTSVTAADTAVYYCAGRIAARHGWFDPWGQGTLVTVSS VL: DIQMTQSPSSVSTSVGDRVTISCRASQDIRKWLAWYQQKPGKAPKLLIYATSSLQSGVPSRFSGSGSGTDFTLTISSLQPEDFATYFCQQANSFPFTFGQGTKLEIK | 152000 | 0.000301 | – | – | – |
| REGN10716: anti-hCACNG1 antibody, HCVR/LCVR SEQ ID NOs: 50/58, wildtype hIgG1 (antibody, V domains shown, hIgG1) VH: QVQLQESGPGLVKPSETLSLTCTVSGDSINNYYWTWLRQPPGKGLEWIGYIYYSGSANYNPSLKSRVTISVDTSKNQFSLKLNSVTAADTAVYYCARGAVKYFRHWGQGTLVTVSS VL: EIVLTQSPGTLSLSPGERATLSCRASQTINHNNLAWYQQRPGQAPRLLIYGASNRATAIPDRFSGSGSGTDFTLTISRLEPEDFEVYSCQQYGSLPLTFGGGTKVEIK | 730000 | 8.36e-05 | – | – | – |
| REGN7660: anti-hCACNG1 antibody, HCVR/LCVR SEQ ID NOs: 130/138 (antibody, V domains shown) VH: EVQLVESGGGLVQPGGSLKLSCTASGLTLSDSAMHWVRQASGKGLEWVGRIRNKANRYATEYAASVKGRFTISRDDSKNTAYLQMNSLKTEDTAVYYCTRNWKIFLFDYWGQGTLVTVSS VL: EIVLTQSPGTLTLSPGERATLSCRASQSVGSKYLAWFQQKRGQAPRLLIYGASSRTSGIPDRISGSGSGTDFTLTISRLEPEDFAVYYCQQYGSSPWTFGQGTKVEIK | 1.93e+06 | 0.0243 | – | – | – |
| REGN10713: anti-hCACNG1 antibody, HCVR/LCVR SEQ ID NOs: 162/170, wildtype hIgG1 (antibody, V domains shown, hIgG1) VH: EVQLVESGGNLVQPGGSLRLSCAASGFTFTSHAMNWVRQAPGKGLEWVSVITGRGFDTHYADSVKGRFTISRDISKNTLYLQMNSLRAEDTAVYYCAKGLYDSGNYYIDYWGQGTLVTVSS VL: QSVLTQPPSVSAAPGQKVTISCSGSSSNIGNNYVSWYQQLPGTAPKLLIYDNNKRPSGIPDRFSGSKSGTSATLGITGLQTGDEADYYCGTWDLSLSFNWVFGGGTKLTVL | 74200 | 4.72e-05 | – | – | – |

Reference: patent publication US20260234660A1, “TREATMENT OF MUSCLE RELATED DISORDERS WITH ANTI-HUMAN CACNG1 ANTIBODIES” (Regeneron Pharmaceuticals, Inc., priority 2023, published 2026)
